Consider 4 molecules from US7638324 (BURNHAM INSTITUTE FOR MEDICAL RESEARCH, dated 2009).

One assay concerns the target Bcl-XL (UniProt Q07817 1-233). The assay is described as follows: co-immunoprecipitation with anti-GFP antibody, anti-Bcl-XL immunoblot. On the procedure:
(§1) For co-immunoprecipitations and immunoblotting, immunoblotting was performed as described previously (Xu and Reed, supra., (1998); Zhang et al., supra., (2000)). For co-immunoprecipitations, cells were cultured in […] benzocarbonyl Valine Alanine Aspartate fluoromethyl-ketone (zVAD-fmk) to prevent apoptosis. Cells were suspended in lysis buffer (50 mM Tris-HCl, pH7.4; 150 mM NaCl; 20 mM EDTA; 50 mM NaF; 0.5% NP-40; 0.1 mM Na_3VO_4; 20 µg/ml Leupeptin; 20 µg/ml Aprotinin; 1 mM dithiothreitol (DTT); and 1 mM phenylmethylsulfonylfluoride (PMSF). Lysates (0.2 ml diluted into 1 ml final volume of lysis buffer) were cleared by incubation with 15 µl of protein G-Sepharose 4B (Zymed; South San Francisco Calif.) and then incubated with 15 µl of polyclonal anti-GFP antibody (Santa Cruz; Santa Cruz Calif.) and 15 µl of protein G at 4° C. overnight. Beads were then washed 4 times with 1.5 mls lysis buffer before boiling in Laemmli sample buffer and performing SDS-PAGE/immunoblotting.
A general note: In western blotting, separated proteins are transferred to a membrane and probed.

For another assay, the target named is T1, GFP-Bcl-GS (human, UniProt P42212 1-238 = GFP, limits assumed).
T1 construct: Expressed by transient transfection and immunoprecipitated with polyclonal anti-GFP antibody; also called Bcl-G (short); wild-type Bcl-GS
The assay is described as follows: co-immunoprecipitation from lysates of transiently transfected cells. On the procedure:
as §1

In assay [1] the target is T2, Bcl-GS (yeast two-hybrid construct) (human, UniProt Q9BZR8 1-241).
T2 construct: Used in yeast two-hybrid assays
T2 sequence: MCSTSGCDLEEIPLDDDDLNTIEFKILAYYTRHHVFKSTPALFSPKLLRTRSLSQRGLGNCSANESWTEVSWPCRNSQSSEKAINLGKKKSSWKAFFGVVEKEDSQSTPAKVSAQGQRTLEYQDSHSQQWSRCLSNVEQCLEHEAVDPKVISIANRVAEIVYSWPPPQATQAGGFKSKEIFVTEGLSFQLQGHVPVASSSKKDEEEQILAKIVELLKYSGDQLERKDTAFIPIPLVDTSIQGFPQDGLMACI
The assay is described as follows: yeast two-hybrid.

Chain of Bcl-XL (Q07817 whole entry): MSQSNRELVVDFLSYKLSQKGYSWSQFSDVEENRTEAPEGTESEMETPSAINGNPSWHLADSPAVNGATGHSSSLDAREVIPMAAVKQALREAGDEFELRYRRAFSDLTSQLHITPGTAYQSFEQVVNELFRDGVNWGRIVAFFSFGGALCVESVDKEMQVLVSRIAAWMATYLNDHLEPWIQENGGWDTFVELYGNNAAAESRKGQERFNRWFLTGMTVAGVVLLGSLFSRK

B1: GFP-Bcl-GS (ΔBH3) (other)
chain: MCSTSGCDLEEIPLDDDDLNTIEFKILAYYTRHHVFKSTPALFSPKLLRTRSLSQRGLGNCSANESWTEVSWPCRNSQSSEKAINLGKKKSSWKAFFGVVEKEDSQSTPAKVSAQGQRTLEYQDSHSQQWSRCLSNVEQCLEHEAVDPKVISIANRVAEIVYSWPPPQATQAGGFKSKEIFVTEGLSFQLQGHVPVASSSKKDEEEQILAGSDTAFIPIPLVDTSIQGFPQDGLMACI
notes: The limits of the deletion would have to be derived from the primers; they are not guessed here; also called GFP-Bcl-GS (DBH3); mutant of Bcl-GS lacking the BH3 domain; not shown: N-terminal EGFP and the short vector linker of pEGFP-C1 (Clontech)
B1: the binding result with Bcl-XL was “no binding”.

B2: Bad (other, UniProt Q92934 1-168, looked up)
chain: MFQIPEFEPSEQEDSSSAERGLGPSPAGDGPSGSGKHHRQAPGLLWDASHQQEQPTSSSHHGGAGAVEIRSRHSSYPAGTEDDEGMGEEPSPFRGRSRSAPPNLWAAQRYGRELRRMSDEFVDSFKKGLPRPKSAGTATQMRQSSSWTRVFQSWWDRNLGRGSSAPSQ
In the case of B2, in the assay with GFP-Bcl-GS, the binding result is recorded as “no binding”.

B3: Bak (other, UniProt Q16611 1-211, looked up)
chain: MASGQGPGPPRQECGEPALPSASEEQVAQDTEEVFRSYVFYRHQQEQEAEGVAAPADPEMVTLPLQPSSTMGQVGRQLAIIGDDINRRYDSEFQTMLQHLQPTAENAYEYFTKIATSLFESGINWGRVVALLGFGYRLALHVYQHGLTGFLGQVTRFVVDFMLHHCIARWIAQRGGWVAALNLGNGPILNVLVVLGVVLLGQFVVRRFFKS
With B3, the binding result (in assay [1]; with GFP-Bcl-GS) was “no binding” in each case.

B4: Bid (other, UniProt P55957 1-195, looked up)
chain: MDCEVNNGSSLRDECITNLLVFGFLQSCSDNSFRRELDALGHELPVLAPQWEGYDELQTDGNRSSHSRLGRIEADSESQEDIIRNIARHLAQVGDSMDRSIPPGLVNGLALQLRNTSRSEEDRNRDLATALEQLLQAYPRDMEKEKTMLVLALLLAKKVASHTPSLLRDVFHTTVNFINQNLRTYVRSLARNGMD
Turning to B4, in the assay with GFP-Bcl-GS, the binding result was “no binding”.
